In general, stoichiometry N refers to the number of molecules, sites or subunits per partner or assembly.

This data set deals with the molecule itself. The data set is described as follows: crystal structure.

B1: secreted (extracellular) catalase-peroxidase from Magnaporthe grisea, wild type (enzyme)
chain: QGCPFAKRDGTVDSSLPQKRADAPETTTFGRCAVKSNQAGGGTRSHDWWPCQLRLDVLRQFQPSQNPLGGDFDYAEAFQSLDYEAVKKDIAALMTESQDWWPADFGNYGGLFVRMAWHSAGTYRAMDGRGGGGMGQQRFAPLNSWPDNQNLDKARRLIWPIKQKYGNKISWADLMLLTGNVALENMGFKTLGFGGGRADTWQSDEAVYWGAETTFVPQGNDVRYNNSVDINARADKLEKPLAATHMGLIYVNPEGPNGTPDPAASAKDIREAFGRMGMNDTETVALIAGGHAFGKTHGAVKGSNIGPAPEAADLGMQGLGWHNSVGDGNGPNQMTSGLEVIWTKTPTKWSNGYLESLINNNWTLVESPAGAHQWEAVNGTVDYPDPFDKTKFRKATMLTSDLALINDPEYLKISQRWLEHPEELADAFAKAWFKLLHRDLGPTTRYLGPEVPKESFIWQDPLPAREGDLIDDADVDKLKAAILSTDGLDVSKLASTAMACATTYRNSDKRGGCNGARIALEPQRNWVSNNPTQLSAVLDALKKVQSDFNGSNGNKKVSLADLIVLGGTAAVEKAAKDAGVDIKVPFSAGRVDATQEQTDVTQFSYLEPQADGFRNYGRGTARARTEEIMVDKASQLTLTPPELTVLVGGMRALGANYDGSDVGVFTANKGKLTPDFFVNLVDMNIAWTASGADGESWVGTDRKSRSEKYKGSRADLVFGSHAELRAIAEVYAENGNQEKFVKDFVAAWTKVMNLDRFDLKVKK
Turning to B1, the “stoichiometry N” value was 2.

Values taken from publication PMC4928148 (Biochemistry, 2016).
